Substitutions are numbered along the chain they refer to.
T1: Mcm4 (S. cerevisiae, UniProt P30665 1-933)
T1 construct: Mcm4, S. cerevisiae; the entire MCM4 ORF stands on pET11a-MCM4; also called minichromosome maintenance protein 4; source: purified (ammonium sulphate, SP Sepharose, heparin agarose, ssDNA Sepharose, Mono S)
T1 sequence (looked up): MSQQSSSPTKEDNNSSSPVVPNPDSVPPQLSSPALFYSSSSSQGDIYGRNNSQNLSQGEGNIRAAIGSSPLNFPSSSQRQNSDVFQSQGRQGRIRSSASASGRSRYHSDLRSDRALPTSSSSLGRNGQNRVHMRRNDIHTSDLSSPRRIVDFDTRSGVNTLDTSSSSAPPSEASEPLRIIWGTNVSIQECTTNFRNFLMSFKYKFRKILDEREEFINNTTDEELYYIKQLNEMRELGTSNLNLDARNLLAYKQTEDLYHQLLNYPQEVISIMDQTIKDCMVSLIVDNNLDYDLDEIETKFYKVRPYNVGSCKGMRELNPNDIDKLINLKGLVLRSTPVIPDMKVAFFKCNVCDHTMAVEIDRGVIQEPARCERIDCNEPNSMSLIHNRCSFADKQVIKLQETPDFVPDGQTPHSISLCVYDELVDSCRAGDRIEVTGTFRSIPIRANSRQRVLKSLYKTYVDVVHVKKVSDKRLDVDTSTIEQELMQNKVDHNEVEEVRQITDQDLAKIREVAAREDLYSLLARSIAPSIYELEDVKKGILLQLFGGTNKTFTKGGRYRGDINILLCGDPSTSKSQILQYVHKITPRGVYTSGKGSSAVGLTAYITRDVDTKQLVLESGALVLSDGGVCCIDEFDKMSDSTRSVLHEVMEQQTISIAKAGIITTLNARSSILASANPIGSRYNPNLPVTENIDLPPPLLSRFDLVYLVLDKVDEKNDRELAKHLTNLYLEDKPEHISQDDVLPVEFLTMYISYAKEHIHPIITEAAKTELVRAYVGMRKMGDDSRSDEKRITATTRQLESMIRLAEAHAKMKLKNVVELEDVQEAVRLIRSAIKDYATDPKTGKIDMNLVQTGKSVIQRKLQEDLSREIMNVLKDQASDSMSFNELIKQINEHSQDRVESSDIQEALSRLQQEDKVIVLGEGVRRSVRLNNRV

B1: Mcm4^R701A (natural protein, S. cerevisiae, UniProt P30665 1-933, looked up)
chain: T1 sequence (looked up) with R701A
notes: Mcm4, S. cerevisiae; entire MCM4 ORF with the SRF arginine R701 changed to alanine; Purification of the mutant is not described separately; also called 4^RA; Mcm4^RA; source: purified
B2: Mcm7 (natural protein, S. cerevisiae, UniProt P38132 1-845, looked up)
chain: MSAALPSIQLPVDYNNLFNEITDFLVTFKQDTLSSDATRNENEDENLDAENIEQHLLEKGPKYMAMLQKVANRELNSVIIDLDDILQYQNEKFLQGTQADDLVSAIQQNANHFTELFCRAIDNNMPLPTKEIDYKDDVLDVILNQRRLRNERMLSDRTNEIRSENLMDTTMDPPSSMNDALREVVEDETELFPPNLTRRYFLYFKPLSQNCARRYRKKAISSKPLSVRQIKGDFLGQLITVRGIITRVSDVKPAVEVIAYTCDQCGYEVFQEVNSRTFTPLSECTSEECSQNQTKGQLFMSTRASKFSAFQECKIQELSQQVPVGHIPRSLNIHVNGTLVRSLSPGDIVDVTGIFLPAPYTGFKALKAGLLTETYLEAQFVRQHKKKFASFSLTSDVEERVMELITSGDVYNRLAKSIAPEIYGNLDVKKALLLLLVGGVDKRVGDGMKIRGDINVCLMGDPGVAKSQLLKAICKISPRGVYTTGKGSSGVGLTAAVMKDPVTDEMILEGGALVLADNGICCIDEFDKMDESDRTAIHEVMEQQTISISKAGINTTLNARTSILAAANPLYGRYNPRLSPLDNINLPAALLSRFDILFLMLDIPSRDDDEKLAEHVTYVHMHNKQPDLDFTPVEPSKMREYIAYAKTKRPVMSEAVNDYVVQAYIRLRQDSKREMDSKFSFGQATPRTLLGIIRLSQALAKLRLADMVDIDDVEEALRLVRVSKESLYQETNKSKEDESPTTKIFTIIKKMLQETGKNTLSYENIVKTVRLRGFTMLQLSNCIQEYSYLNVWHLINEGNTLKFVDDGTMDTDQEDSLVSTPKLAPQTTASANVSAQDSDIDLQDA
notes: Mcm7, S. cerevisiae; also called minichromosome maintenance protein 7

Tests used:
Details in all cases: both partners purified
Mcm6 = biological target: T2, Mcm6 (S. cerevisiae, UniProt P53091 1-1017); experiment: SEC; 5.2 nmol each subunit mixed, 5 mg/ml, 16°C 30 min; Superose 6 10/300 GL, 20 mM Tris-HCl pH 7.5, 0.1 mM EDTA, 2 mM DTT, 100 mM NaCl, 10% glycerol; no nucleotide
T2 construct: Mcm6, S. cerevisiae; also called minichromosome maintenance protein 6

Mcm4^R701A = biological target: B1; experiment: as above
Mcm4 = biological target: T1, Mcm4; experiment: cross-linking; glutaraldehyde, 9 ug Mcm4/6/7 in 20 mM HEPES NaOH pH 8.4, 10 mM magnesium acetate, no nucleotide; 16°C 30 min then 2 min 37°C; 3.5% SDS-phosphate gel

T2 sequence (P53091 whole entry): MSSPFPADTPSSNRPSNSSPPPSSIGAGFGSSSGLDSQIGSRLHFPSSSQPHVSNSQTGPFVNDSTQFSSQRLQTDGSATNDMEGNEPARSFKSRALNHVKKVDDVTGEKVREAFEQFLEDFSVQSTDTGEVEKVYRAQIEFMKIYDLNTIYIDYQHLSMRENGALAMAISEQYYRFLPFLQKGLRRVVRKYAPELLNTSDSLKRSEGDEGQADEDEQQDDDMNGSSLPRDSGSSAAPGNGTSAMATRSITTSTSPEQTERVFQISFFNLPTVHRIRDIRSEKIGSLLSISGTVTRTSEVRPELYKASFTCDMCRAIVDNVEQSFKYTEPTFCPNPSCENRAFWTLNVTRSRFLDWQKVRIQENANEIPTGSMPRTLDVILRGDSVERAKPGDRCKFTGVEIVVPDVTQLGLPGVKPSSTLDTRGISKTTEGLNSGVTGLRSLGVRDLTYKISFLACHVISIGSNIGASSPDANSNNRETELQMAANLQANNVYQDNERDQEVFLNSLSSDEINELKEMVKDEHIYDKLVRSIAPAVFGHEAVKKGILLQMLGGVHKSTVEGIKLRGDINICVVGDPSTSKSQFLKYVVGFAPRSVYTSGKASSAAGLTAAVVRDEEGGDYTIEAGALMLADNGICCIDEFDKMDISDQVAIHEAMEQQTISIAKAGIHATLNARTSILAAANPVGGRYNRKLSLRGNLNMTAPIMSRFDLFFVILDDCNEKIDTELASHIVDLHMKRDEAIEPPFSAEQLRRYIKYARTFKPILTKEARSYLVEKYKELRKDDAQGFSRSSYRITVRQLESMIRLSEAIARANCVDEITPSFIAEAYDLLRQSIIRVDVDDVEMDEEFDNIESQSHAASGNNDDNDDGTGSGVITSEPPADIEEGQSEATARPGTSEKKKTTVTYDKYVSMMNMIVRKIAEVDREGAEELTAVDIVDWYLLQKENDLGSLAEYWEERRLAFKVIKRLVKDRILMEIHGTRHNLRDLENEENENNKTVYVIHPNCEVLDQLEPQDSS

Binder | binding result (Mcm6) | binding result (Mcm4^R701A) | binding result (Mcm4)
B1 | binds |  | 
B2 |  | binds | binds

— article PMC2949612, “The effects of oligomerization on Saccharomyces cerevisiae Mcm4/6/7 function” (BMC Biochemistry, 2010)
